Results on three molecules are retold here after article PMC10368747, “Zinc-finger BED domains drive the formation of the active Hermes transpososome by asymmetric DNA binding”.

Several values for one entry are separate records, joined by “and”; a condition that tells them apart may be missing. Equal values may be shown once.

The target of series [1] is full-length Hermes transposase (with the mutations Q2E and K128G) (Musca domestica) (UniProt Q25442). Kind of series: cryo-EM structure; LE-LE transpososome: Hermes with 8 + LE-TIR + 30 DNA, 8:2 protein-to-DNA, 150 mM NaCl, 25 mM HEPES.Na pH 7.5, purified by SEC. For orientation: Size exclusion chromatography separates by hydrodynamic size, large species first.
Series [2] has the same target. Kind of series: cryo-EM structure; RE-RE transpososome: Hermes with 8 + RE-TIR + 30 DNA, 8:2 protein-to-DNA, 150 mM NaCl, 25 mM HEPES.Na pH 7.5, purified by SEC.
The target is the same in series [3]. The series is described as follows: SEC + other: mass photometry; purified Hermes transposase alone, dialysed against 25 mM HEPES.Na pH 7.5, 0.3 mM TCEP with 0.5, 0.25 or 0.15 M NaCl; Superose 6 SEC; mass photometry at 50, 65 and 30 nM; higher salt favours the octamer, lower salt the hexamer.
Series [4] shares this target. The series is described as follows: mass photometry; Hermes (10 µM) mixed with 2.5, 5 or 10 µM left-end DNAs, dialysed to 150 mM NaCl, 25 mM HEPES.Na pH 7.5, 0.3 mM TCEP, diluted 50 and 100 times; composition by subtracting the mass of the hexamer or octamer.
The target is the same in series [5]. The series is described as follows: cryo-EM structure; LE-LE transpososome: Hermes with 8 + LE-TIR + 30 DNA, 8:2 protein-to-DNA, 150 mM NaCl, 25 mM HEPES.Na pH 7.5, purified by SEC. This is another data set of the same source.
Series [6] concerns the target T1, Hermes BED domain (Musca domestica, UniProt Q25442 1-78).
T1 sequence: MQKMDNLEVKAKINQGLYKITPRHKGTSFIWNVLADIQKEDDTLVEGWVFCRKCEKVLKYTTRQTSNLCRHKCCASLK
Kind of series: EMSA; one BED per DNA; Kd in Fig. 6c is 1.7 or 2.8 uM, assignment not resolvable from text; BED EMSA: 25 mM HEPES.Na pH 7.5, 150 mM NaCl, 0.3 mM TCEP, 1 uM DNA, 0.5 uM ran17, 0-10 uM BED, 1 h 4 C then 15 min RT; 15% PAGE 0.5X TBE; Hermes SEC at 150 mM. As to conditions: protein: recombinant; tags: untagged; label: 5'-6FAM top strand (EMSA); blunt. Background: Mobility shift assays separate free from complexed probe on a gel.

Series [7] deals with T1, Hermes BED domain. Kind of series: EMSA; two BED per DNA, cooperative; 0.5 uM ran17 competitor; value assigned by the peer review file; BED EMSA: 25 mM HEPES.Na pH 7.5, 150 mM NaCl, 0.3 mM TCEP, 1 uM DNA, 0.5 uM ran17, 0-10 uM BED, 1 h 4 C then 15 min RT; 15% PAGE 0.5X TBE; Hermes SEC at 150 mM. The settings on record: protein: recombinant; tags: untagged; label: 5'-6FAM top strand (EMSA, 10% of the DNA); blunt.

The term stoichiometry N denotes a count of units in the complex or per binding partner. Usually Kd stands for the equilibrium constant for the complex coming apart.

Take “full-length Hermes transposase (with the mutations Q2E and K128G) (from UniProt Q25442 1-612) (enzyme)”: the stoichiometry N in series [1] is 6; in series [2], 8; in series [3], 6 monomers and 8 monomers; in series [4], 6 and 8; in series [5], 8.

B1: LE11-27mut (dsDNA)
DNA 1: CAACAAGTGTTTTATTT
DNA 2: AAATAAAACACTTGTTG
B1: the binding result with Hermes BED domain [6] was “binds”.

B2: LE11-27 (dsDNA)
DNA 1: CAACAAGTGGCTTATTT
DNA 2: AAATAAGCCACTTGTTG
Consider B2, for which the Kd with Hermes BED domain [7] was found to be 2500 ± 200 nM.
